From patent publication US6090605A, “Purified porcine kidney L-fucose kinase” (The Board of Trustees of the University of Arkansas, priority 1998, dated 2000) come the findings set out here.

Substrate in data set [1]: C[C@H](O)[C@@H](O)[C@@H](O)[C@H](O)C=O
The data set is described as follows: Effect of substrate concentration on velocity (Lineweaver-Burke, Km). It counts as biochemical, pig. Particulars: other: 5 mM ATP and 5 mM Mg++; pH 8.0; 37.0 °C. The procedure: (§1) Fucokinase activity was assayed by measuring the production of L-fucose-1-Pfrom [^3 H]L-fucose and ATP. The incubation mixtures contained the following components (final concentrations) in a total volume of 150 μl: L-fucose, 0.1 mM; ATP, 5 mM; MgSO4, 5 mM; Tris-HCl buffer, pH 8.0, 65 mM; and various amounts of enzyme at the different stages of purification. Incubations were at 37° C. for 10 minutes, and reactions were terminated by heating the reaction mixtures in a boiling water bath for 1 minute. The incubation mixtures were then applied to a column of DE-52 contained in a Pasteur pipette, and the column was washed with at least 5 column volumes of 10 mM (NH4)HCO3 to remove the unbound material. The [^3 H]fucose-1-P was then eluted with 500 mM (NH4)HCO3. Aliquots of the eluates were assayed for their radioactive content by subjecting a portion to scintillation counting.
(§2) The effect of concentration of the substrates, L-fucose and ATP, on the velocity of the reaction was determined. The Km for L-fucose was determined at saturating concentrations of the other substrates, i.e., 5 mM ATP and 5 mM Mg^++. […] A similar experiment was performed with ATP. In this case, the reactions were done in the presence of 5 mM Mg^++ and 100 μM L-fucose. The Km for ATP was estimated to be 600 μM (data not shown).

Substrate in data set [2]: Nc1ncnc2c1ncn2[C@@H]1O[C@H](COP(=O)(O)OP(=O)(O)OP(=O)(O)O)[C@@H](O)[C@H]1O
The description is as above. The format is biochemical, pig. Particulars: other: 5 mM Mg++ and 100 μM L-fucose; pH 8.0; 37.0 °C. The procedure: as §1, §2

B1: pig kidney fucokinase (Sus scrofa) (protein)
chain: MEQPKGVDWTVIILTCQYKDSVEVFQKELEIRQKREQIPASTLLLAVEDPEVHVGSGGATLNALLVAAEHLSARAGFTVVTSDVLHSAWILILHMGRDFPFDDCGRAFTCLPVENPQAPVEAVVCNLDCLLDIMSHRLGPGSPPGVWVCSTDMLLSVPPNPGINWDGFRGARVIALPGSTAYARNHGVYLTDSQGFVLDIYYQGTEAEIQRCARPDGQVPLVSGIVFFSVETAEHLLATHVSPPLDACTYMGLDSGAQPVQLSLFFDILLCMARNVRREDFLVGRPPEMGRGDMETEGYLRGARAELWRELRDQPLTLAYVPDGSYNYMTNSASEFLHSLTFPGASGAQVVHSQVEEQQLLGAGSSVVSCLLEGPVQLGPGSVLQHCHLRGPIHIGTGCFVSGLDAAQSEALHSLELHDLVLQGHHLQLHGAPSRAFTLVGRLDSWERQGAGTYLNMSWSKFFQKTGIRDWDLWDPDTPPTERCLLSARLFPVLHPLRALGPQDMLWMLDPQEDGGKALRAWRDSWRLSWEQLQPCLDRAATLASRRDLFFRQALHKARHVLEARQDLSLRPLIRAAVREGCPGPLMATLDQVAAGAGDPGVAARALACVADILGCMAEGRGGLRSGPAANPEWVRPFSYLECGDLAGGVEALAQEREKWLSRPALLVRAARHYEGAGQILIRQAVMSAQHFVSTEPVELPAPGQWVVAECPARVDFSGGWSDTPPLAYEHGGAVLGLAVRVDGRRPIGARARRIPEPELWLAVGPQHDKMAMKIVCRSLDDLQDYCQPHAPGALLKAAFICAGILSVHSELSLSEQLLCTFGGGFELQTWSELPHGSGLGTSSILAGAALAALQRVAGRAVGTEALIHAVLHLEQVLTTGGGWQDQVGGLMPGIKVGRSRAQLPLKVEVEEITVPAGFVQKLNDHLLLVYTGKTRLARNLLQDVLRSWYARLPPVVQNAHNLVQQTEECAEAFRQGSLPRLGQCLTSYWEQKKLMAPGCEPLAVRHMMDALAPHVHGQSLAGAGGGGFLYLLTKEPRQKEALEAVLAKTEGLGNYSVHLVEVDTQGLSLQLLGTETSTGCSF
notes: L-Fucokinase was purified to apparent homogeneity from the cytosolic fraction of pig kidney; from tissue; host or cells: pig kidney, cytosolic fraction
Regarding B1, the results for the Km in data set [1] and in data set [2] were 27 µM and 600 µM, respectively.
